Stoichiometry N data for 2 molecules are collected here from paper PMC10995199, “Architecture and regulation of filamentous human cystathionine beta-synthase” (Nature Communications, 2024).

Settings in all cases: remark: other sources report otherwise
The target in test [1] is T1, full-length human cystathionine beta-synthase, N-terminal His-tag removed during purification (CBS^FL) (human), P35520.
T1 chain: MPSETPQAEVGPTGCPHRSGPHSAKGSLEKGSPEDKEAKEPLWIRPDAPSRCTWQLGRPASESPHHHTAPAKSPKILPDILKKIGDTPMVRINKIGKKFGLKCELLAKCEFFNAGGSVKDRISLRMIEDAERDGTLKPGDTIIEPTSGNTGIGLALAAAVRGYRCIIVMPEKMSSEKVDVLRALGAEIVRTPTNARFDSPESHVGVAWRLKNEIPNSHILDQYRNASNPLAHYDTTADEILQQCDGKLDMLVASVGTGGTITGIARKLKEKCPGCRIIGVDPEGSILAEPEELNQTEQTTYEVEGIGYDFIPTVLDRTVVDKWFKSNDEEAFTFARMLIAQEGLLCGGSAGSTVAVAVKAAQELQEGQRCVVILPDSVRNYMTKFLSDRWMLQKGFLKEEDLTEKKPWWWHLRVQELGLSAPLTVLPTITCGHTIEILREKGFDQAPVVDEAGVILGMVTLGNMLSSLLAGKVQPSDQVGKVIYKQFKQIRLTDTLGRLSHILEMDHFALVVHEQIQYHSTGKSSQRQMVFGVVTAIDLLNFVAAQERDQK
The experiment in a line: SEC; analytical Superose 6 Increase 10/300 GL; 25 mM HEPES pH 7.5, 500 mM NaCl, 0.5 mM TCEP, 5% glycerol; 250 µl loaded at 3.0 mg/ml; self-association. On the technique in general: In gel filtration, larger molecules generally elute earlier.

Test [2] deals with T1, full-length human cystathionine …. As to the kind of experiment: native gel or EMSA; Coomassie-stained clear-native and blue-native PAGE; 25 mM HEPES pH 7.5, 200 mM NaCl, 2.0 mM TCEP; 1.0 mg/ml, 8.0 µg protein; without or with 1 mM SAM (no apparent effect on the oligomeric status); self-association. Background: In EMSA bound probe runs differently from free probe, usually more slowly.

Test [3] deals with T2, full-length human cystathionine beta-synthase with a permanent C-terminal His-tag (CBS^FL-CHis) (human), P35520.
T2 chain: T1 chain
As to the kind of experiment: SEC; analytical Superose 6 Increase 10/300 GL; 25 mM HEPES pH 7.5, 500 mM NaCl, 0.5 mM TCEP, 5% glycerol; 250 µl loaded at 3.0 mg/ml; self-association.

B1: full-length human cystathionine beta-synthase, N-terminal His-tag removed during purification (CBS^FL), P35520 1-551 (enzyme)
chain: T1 chain
Take B1: the stoichiometry N in test [1] and in test [2] was above 4 in each case.

B2: full-length human cystathionine beta-synthase with a permanent C-terminal His-tag (CBS^FL-CHis), P35520 1-551 (enzyme)
chain: T1 chain
With B2, the stoichiometry N in test [3] was above 4.

As a reminder, the stoichiometry N is a count of units in the complex or per binding partner.
